Measurements reported in IntAct's records for PubMed 31515488.

B1: Transcription factor 12 (Homo sapiens), Q99081-3 (parent)
chain: MNPQQQRMAAIGTDKELSDLLDFSAMFSPPVNSGKTRPTTLGSSQFSGSGIDERGGTTSWGTSGQPSPSYDSSRGFTDSPHYSDHLNDSRLGAHEGLSPTPFMNSNLMGKTSERGSFSLYSRDTGLPGCQSSLLRQDLGLGSPAQLSSSGKPGTAYYSFSATSSRRRPLHDSAALDPLQAKKVRKVPPGLPSSVYAPSPNSDDFNRESPSYPSPKPPTSMFASTFFMQDGTHNSSDLWSSSNGMSQPGFGGILGTSTSHMSQSSSYGNLHSHDRLSYPPHSVSPTDINTSLPPMSSFHRGSTSSSPYVAASHTPPINGSDSILGTRGNAAGSSQTGDALGKALASIYSPDHTSSSFPSNPSTPVGSPSPLTGTSQWPRPGGQAPSSPSYENSLHSLKNRVEQQLHEHLQDAMSFLKDVCEQSRMEDRLDRLDDAIHVLRNHAVGPSTSLPAGHSDIHSLLGPSHNAPIGSLNSNYGGSSLVASSRSASMVGTHREDSVSLNGNHSVLSSTVTTSSTDLNHKTQENYRGGLQSQSGTVVTTEIKTENKEKDENLHEPPSSDDMKSDDESSQKDIKVSSRGRTSSTNEDEDLNPEQKIEREKERRMANNARERLRVRDINEAFKELGRMCQLHLKSEKPQTKLLILHQAVAVILSLEQQVRERNLNPKAACLKRREEEKVSAVSAEPPTTLPGTHPGLSETTNPMGHM
partner: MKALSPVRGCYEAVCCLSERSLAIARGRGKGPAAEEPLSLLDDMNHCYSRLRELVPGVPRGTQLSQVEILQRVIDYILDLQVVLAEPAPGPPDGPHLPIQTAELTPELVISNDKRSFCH
B2: Fibronectin type III and SPRY domain-containing protein 2 (Homo sapiens), A1L4K1 (parent)
chain: MEEESGEELGLDRSTPKDFHFYHMDLYDSEDRLHLFPEENTRMRKVVQAEMANESRGAGDGKAQRDLQEEVDELVHLYGLEDDHELGDEFVDENIPRTGVSEYPPYMMKRRDPAREQRDWRLSGEAAEAEDLGFGGWGSAGQCQDLREAYRYTHGRASEEYECYVIPEEEDEEEAADVFCVTCKTPIRAFQKVFDEHKEHEVIPLNEALESAKDEIHKNMYKLEKQIIEMENFANHLEEVFITVEENFGKQEQNFESHYNEILETLAQKYEEKIQALGEKKKEKLEALYGQLVSCGENLDTCKELMETIEEMCHEEKVDFIKDAVAMADRLGKFLKTKTDVEISAQPEFEDQTLDFSDVEQLMGSINTIPAPSAPVINPQVPNSATGSSVRVCWSLYSDDTVESYQLSYRPVQDSSPGTDQAEFTVTVKETYCSVTNLVPNTQYEFWVTAHNRAGPSPSSERAVYMTAPSPPIIKTKEIRSCEEAVLICWESGNLNPVDSYTVELTQAESPEASGVTESVVGIPTCESVVQLQPGRSYIIYVRALNMGGPSVRSEPATVHTIGSYFRLNKDTCHPWLTISEDGLTAVRSERRTPARELSPSDTHFTRCVAVMGNLIPVRGHHYWEVEVDEHLDYRVGVAFADVRKQEDLGANCLSWCMRHTFASSRHKYEFLHNRTTPDIRITVPPKKIGILLDYEHSKLSFFNVDLSQHLYTFSCQLHEFVHPCFSLEKPGCLKVHNGISMPKHVTFY
partner: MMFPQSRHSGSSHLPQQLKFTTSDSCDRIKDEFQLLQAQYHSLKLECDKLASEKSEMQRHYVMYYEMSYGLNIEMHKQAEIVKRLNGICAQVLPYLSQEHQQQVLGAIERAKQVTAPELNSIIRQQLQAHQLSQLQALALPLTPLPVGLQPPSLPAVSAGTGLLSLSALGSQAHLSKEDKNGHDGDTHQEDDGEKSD
B3: Adenosylhomocysteinase (Homo sapiens), P23526 (parent)
chain: MSDKLPYKVADIGLAAWGRKALDIAENEMPGLMRMRERYSASKPLKGARIAGCLHMTVETAVLIETLVTLGAEVQWSSCNIFSTQDHAAAAIAKAGIPVYAWKGETDEEYLWCIEQTLYFKDGPLNMILDDGGDLTNLIHTKYPQLLPGIRGISEETTTGVHNLYKMMANGILKVPAINVNDSVTKSKFDNLYGCRESLIDGIKRATDVMIAGKVAVVAGYGDVGKGCAQALRGFGARVIITEIDPINALQAAMEGYEVTTMDEACQEGNIFVTTTGCIDIILGRHFEQMKDDAIVCNIGHFDVEIDVKWLNENAVEKVNIKPQVDRYRLKNGRRIILLAEGRLVNLGCAMGHPSFVMSNSFTNQVMAQIELWTHPDKYPVGVHFLPKKLDEAVAEAHLGKLNVKLTKLTEKQAQYLGMSCDGPFKPDHYRY
B4: Beta-taxilin (Homo sapiens), Q8N3L3 (parent)
chain: MEANHSEQLSAERQSTPPGDSSSLPSHNGLEKEDGQDSPTPVQPPEKEASVHPDISEELNRQLEDIINTYGSAASTAGKEGSARASEQPENAESPDNEDGDCEETTEEAGREPVASGEPPTVKEPVSNKEQKLEKKILKGLGKEANLLMQNLNKLQTPEEKFDFLFKKYAELLDEHRTEQKKLKLLQKKQVQIQKEKDQLQGEHSRAILARSKLESLCRELQRHNKTLKEEALQRAREEEEKRKEITSHFQSTLTDIQGQIEQQSERNMKLCQENTELAEKLKSIIDQYELREEHLDKIFKHRELQQKLVDAKLEQAQEMMKEAEERHKREKEYLLNQAAEWKLQAKVLKEQETVLQAQLTLYSGRFEEFQSTLTKSNEVFATFKQEMDKTTKKMKKLEKDTATWKARFENCNKALLDMIEEKALRAKEYECFVMKIGRLENLCRALQEERNELHKKIRDAEISEKDDQSQHNSDEEPESNVSVDQEIDAEEVNSVQTAVKNLATAFMIIHHPESTPHQSKETQPEIGSSQESADAALKEPEQPPLIPSRDSESPLPPLTPQAEAEGGSDAEPPSKASNSPAGLGAETQCEGLPVGAQADQASWKPEAEASGQAPQAPTEASLQKMEADVPAPACAAEEHVAAMVPACEPSRQPPRAAAEELPVGASAGPQPRNVADTNLEGVD
B5: Centrosomal protein of 55 kDa (Homo sapiens), Q53EZ4 (parent)
chain: MSSRSTKDLIKSKWGSKPSNSKSETTLEKLKGEIAHLKTSVDEITSGKGKLTDKERHRLLEKIRVLEAEKEKNAYQLTEKDKEIQRLRDQLKARYSTTTLLEQLEETTREGERREQVLKALSEEKDVLKQQLSAATSRIAELESKTNTLRLSQTVAPNCFNSSINNIHEMEIQLKDALEKNQQWLVYDQQREVYVKGLLAKIFELEKKTETAAHSLPQQTKKPESEGYLQEEKQKCYNDLLASAKKDLEVERQTITQLSFELSEFRRKYEETQKEVHNLNQLLYSQRRADVQHLEDDRHKTEKIQKLREENDIARGKLEEEKKRSEELLSQVQFLYTSLLKQQEEQTRVALLEQQMQACTLDFENEKLDRQHVQHQLHVILKELRKARNQITQLESLKQLHEFAITEPLVTFQGETENREKVAASPKSPTAALNESLVECPKCNIQYPATEHRDLLVHVEYCSK
partner: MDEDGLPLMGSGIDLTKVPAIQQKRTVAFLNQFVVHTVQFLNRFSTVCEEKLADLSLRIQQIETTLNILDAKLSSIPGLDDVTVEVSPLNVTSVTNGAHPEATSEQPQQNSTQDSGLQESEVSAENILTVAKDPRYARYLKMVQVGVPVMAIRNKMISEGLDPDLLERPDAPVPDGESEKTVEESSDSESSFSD

Variants of: B1
Details: with id3_human ID3, Q02535

**Q.** How did the “effect of a mutation on the interaction” value turn out when S446F was run?
**A.** with no effect

**Q.** A482V was tested. Which “effect of a mutation on the interaction” value did it give?
**A.** with no effect

**Q.** With R74G as the variant, how does the “effect of a mutation on the interaction” value read?
**A.** with no effect

Variants of: B2
Details: with tle5_human TLE5, Q08117

**Q.** Which “effect of a mutation on the interaction” value does the source give for K333T here?
**A.** with no effect

**Q.** For E720K, which “effect of a mutation on the interaction” value is on record?
**A.** with no effect

Variants of: B3
Details: with ca050_human C1orf50, Q9BV19
Sequence of ca050_human C1orf50, Q9BV19 (Q9BV19 whole entry): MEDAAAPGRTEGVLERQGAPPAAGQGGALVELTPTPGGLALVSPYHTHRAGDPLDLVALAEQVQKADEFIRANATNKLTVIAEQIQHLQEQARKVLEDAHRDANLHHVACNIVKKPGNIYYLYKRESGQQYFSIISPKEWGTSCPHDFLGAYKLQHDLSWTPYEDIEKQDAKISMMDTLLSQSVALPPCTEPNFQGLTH

**Q.** For I92V, which “effect of a mutation on the interaction” value is on record?
**A.** with no effect

Variants of: B4
Details: with exoc5_human EXOC5, O00471
Sequence of exoc5_human EXOC5, O00471 (O00471 whole entry): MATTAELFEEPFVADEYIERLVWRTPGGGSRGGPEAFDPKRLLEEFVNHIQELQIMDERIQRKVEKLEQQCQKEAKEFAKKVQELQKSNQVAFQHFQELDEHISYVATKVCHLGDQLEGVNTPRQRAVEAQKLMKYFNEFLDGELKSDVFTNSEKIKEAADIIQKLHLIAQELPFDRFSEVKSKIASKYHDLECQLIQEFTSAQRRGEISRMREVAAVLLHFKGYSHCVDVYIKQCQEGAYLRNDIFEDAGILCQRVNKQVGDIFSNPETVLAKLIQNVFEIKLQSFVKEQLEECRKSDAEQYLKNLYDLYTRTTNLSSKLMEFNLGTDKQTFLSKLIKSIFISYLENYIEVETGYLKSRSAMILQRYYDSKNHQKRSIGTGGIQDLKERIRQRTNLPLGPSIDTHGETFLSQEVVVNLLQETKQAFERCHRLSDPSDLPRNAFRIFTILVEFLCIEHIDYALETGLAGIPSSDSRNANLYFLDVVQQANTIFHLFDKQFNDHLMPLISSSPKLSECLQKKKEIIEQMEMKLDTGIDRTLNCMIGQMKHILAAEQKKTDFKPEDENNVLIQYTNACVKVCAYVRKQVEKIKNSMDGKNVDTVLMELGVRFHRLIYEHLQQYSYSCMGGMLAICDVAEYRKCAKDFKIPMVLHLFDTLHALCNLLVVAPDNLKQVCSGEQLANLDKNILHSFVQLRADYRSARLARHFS

**Q.** With I527T as the variant, how does the “effect of a mutation on the interaction” value read?
**A.** with no effect

Variants of: B4
Details: with mbip1_human MBIP

**Q.** I527T was tested. Which “effect of a mutation on the interaction” value did it give?
**A.** with no effect

Variants of: B4
Details: with cep70_human CEP70, Q8NHQ1
Sequence of cep70_human CEP70, Q8NHQ1 (Q8NHQ1 whole entry): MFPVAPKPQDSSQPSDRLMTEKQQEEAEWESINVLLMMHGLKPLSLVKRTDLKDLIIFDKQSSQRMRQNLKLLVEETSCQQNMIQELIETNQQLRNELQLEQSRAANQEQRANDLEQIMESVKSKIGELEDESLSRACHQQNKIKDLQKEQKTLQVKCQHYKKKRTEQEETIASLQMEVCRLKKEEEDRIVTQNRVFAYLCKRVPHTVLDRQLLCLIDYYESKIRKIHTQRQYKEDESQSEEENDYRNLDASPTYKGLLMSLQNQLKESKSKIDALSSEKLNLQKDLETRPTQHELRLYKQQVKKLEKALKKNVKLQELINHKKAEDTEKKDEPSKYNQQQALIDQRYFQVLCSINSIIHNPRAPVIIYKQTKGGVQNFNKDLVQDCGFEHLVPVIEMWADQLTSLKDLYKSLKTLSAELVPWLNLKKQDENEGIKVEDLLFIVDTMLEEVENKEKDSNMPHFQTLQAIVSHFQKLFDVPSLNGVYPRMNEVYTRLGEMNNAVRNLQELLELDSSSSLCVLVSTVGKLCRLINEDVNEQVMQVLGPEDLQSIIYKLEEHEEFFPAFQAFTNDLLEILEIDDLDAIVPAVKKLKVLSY

**Q.** With T361A as the variant, how does the “effect of a mutation on the interaction” value read?
**A.** with no effect

**Q.** With T523I as the variant, how does the “effect of a mutation on the interaction” value read?
**A.** with no effect

Variants of: B5
Details: with wasc3_human WASHC3, Q9Y3C0

**Q.** For L59F, which “effect of a mutation on the interaction” value is on record?
**A.** with no effect
